Data taken from the supplement of paper PMC12042874.
± gives the uncertainty stated by the source.

Assay: amyloid nucleation score (Sup35N fusion, yeast selection) (log enrichment); library NNK1; higher = more nucleation; inactive = no reads after selection
Outline: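 The nucleation score is the DiMSum log enrichment of output over input reads, centred on the mode score of non-aggregating sequences. Only sequences with 100 or more input reads were scored, using Illumina sequencing of input and output plasmid inserts. Psi-negative yeast expressing Sup35N fused to peptides of 20 random codons were induced 24 hours with 100 μM copper sulfate and grown 7 days at 30°C on medium lacking adenine and uracil.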

| Substance | amyloid nucleation score |
| --- | --- |
| LGRGRKSTMVSQRVERAGVC | -0.626 ± 0.58 |
| LGRGSAVSSPWVIIRIVNML | 0.784 ± 0.72 |
| LGSWARD | -0.27 ± 0.54 |
| LGTTDPYVYSIIMYAFLWIY | 0.386 ± 0.47 |
| LGVQFSGRLSVPVYFMWFTL | 0.814 ± 0.61 |
| LGVRRPQEISCHADHASRWL | -0.776 ± 1.3 |
| LGVVFGRRVHCRLASSVMNM | -0.723 ± 1.5 |
| LGYIVRFQCMYTRRYCSCPD | -1.47 ± 2.7 |
| LHGPWVVYFELSSIFTLTYQ | -0.478 ± 0.29 |
| LHKIHNAIDILS | 0.504 ± 0.56 |
| LHLPHLRIRTNYSGLILSVM | -0.513 ± 0.56 |
| LHLRTVAGSWSNIFYLAAPM | 0.433 ± 0.31 |
| LHQSVMRWLAASWCPQIKLG | 0.338 ± 0.97 |
| LHSPDFDLYYVLRILACDTQ | -0.866 ± 1.7 |
| LHSSMNCRWIHTL | 0.618 ± 0.47 |
| LHTTKK | 0.293 ± 0.48 |
| LHVEWSASMSMFCLNHRIAA | -0.172 ± 0.61 |
| LHYCTCSIRSIF | 0.325 ± 0.6 |
| LICLGRPTSNTELGMNDINF | -0.349 ± 0.84 |
| LIDLSSIKSWHVFSKALCGR | 0.006 ± 0.27 |
| LIGQLIFRPVNGARKIPV | -0.31 ± 0.29 |
| LIHYNNNVYTRWAWSSQQGE | 2.75 ± 0.2 |
| LILFLASV | 1.35 ± 0.27 |
| LILKISMMGK | inactive |

| Substance | amyloid nucleation score |
| --- | --- |
| LIMSFVFSI | 4.57 ± 0.08 |
| LIPSRFMVNGDTIL | 0.971 ± 0.28 |
| LIQRLVFEYMFPVIGVPISW | -0.208 ± 0.65 |
| LIRTLANWLSIPHVLI | -0.351 ± 0.3 |
| LISYRYFFCHRECVLVIGSN | 0.327 ± 0.6 |
| LITYLRLFYRITVRTG | 0.48 ± 0.4 |
| LIVNLKICAVHVGYHWGWRA | 0.653 ± 0.29 |
| LIWWFEGRPRVSGGFSVFDV | -0.304 ± 1.1 |
| LKASMW | 0.322 ± 0.37 |
| LKCFLINVMLLEMLPFWDRS | 1.62 ± 0.55 |
| LKGHLHDSILQCRHKALFF | 0.922 ± 0.75 |
| LKHPDIYRKVERKVRVNMFF | -0.792 ± 0.31 |
| LKHRRSWYLTYIDCAGM | -0.294 ± 0.43 |
| LKKHADNSLDVRS | inactive |
| LKLGYMNLLISDRCAVIERY | 0.969 ± 0.81 |
| LKRDVTSVSGY | 0.348 ± 0.38 |
| LKRFMDTDYYFMMKCCTSN | 0.843 ± 0.55 |
| LKYKKLPFIKRDEKFPTNRN | 0.398 ± 0.54 |
| LLAFL | -0.704 ± 0.55 |
| LLDMHYTLEWCTKCYTDKVQ | 0.121 ± 0.26 |
| LLDVLMDGRFSFVQRYCRAD | 1.05 ± 0.2 |
| LLESFTG | -0.392 ± 0.46 |
| LLGYRTYEMEHSCILRPRNK | 0.887 ± 0.57 |
| LLITNGMSNDGNQCSS | inactive |

| Substance | amyloid nucleation score |
| --- | --- |
| LLKIGVA | -0.465 ± 1.5 |
| LLLYLTLAIGSRLCRELPQR | 0.523 ± 0.43 |
| LLMAIVCIMIRQGFLRHVSP | -0.086 ± 0.56 |
| LLMPDSNG | -0.699 ± 0.3 |
| LLMYKKCRQWGCGNVSCSFD | 7.086 ± 0.065 |
| LLNDSINNPQCFIVSSSGHL | -0.541 ± 0.39 |
| LLNFFK | 0.609 ± 1.1 |
| LLNGEQLQSSDNIRLWIAFR | 0.151 ± 0.41 |
| LLRMIKICYDLRSNLDSWRS | -0.529 ± 1.7 |
| LLRRLTTI | 0.696 ± 0.52 |
| LLSFLRSAKIQTGR | 0.229 ± 0.38 |
| LLSLFRYN | 0.537 ± 1.1 |
| LLSYPIPDMYSIEATTKRRI | 0.133 ± 1.4 |
| LLVLSLINFFFKKRAFCPIT | 2.11 ± 0.6 |
| LLVSVFTRYFPGNVRVTWGT | -0.21 ± 0.32 |
| LLVVRNLEGNNIHALVLCVG | 1.91 ± 0.21 |
| LLYGA | -0.727 ± 1.4 |
| LLYIILFRNYILYKLWIRFA | 0.572 ± 0.3 |
| LLYPHSTSRGLIMTFYPKSG | 0.54 ± 0.6 |
| LLYTVY | -0.849 ± 1.2 |
| LMESVAVFPNSRLPILTEC | -0.011 ± 0.56 |
| LMGECGLSFLTPY | 0.275 ± 0.84 |
| LMNVVLISHKSFVYSR | -1.16 ± 2.7 |
